This note sets out measurements from patent publication US12116424.

Like-named read-outs stand apart in the source and are kept apart here.

Assay [1] has as its target L. monocytogenes AgrC (Listeria monocytogenes (EGD-e)). Kind of assay: cell-based or functional assay.
Assay [2] has the same target. The assay can be described thus: cell-based or functional assay. The source holds these as a separate data set.

As for L. weihenstephanensis AIP (peptide), in assay [1], the Max Activation (agr-GFP reporter, ΔagrD strain) stood at 11.2% and the Max Inhibition (agr-GFP reporter, wild-type strain) was found to be 0%.
In assay [2], AIP A1K/M4dM (peptide) gave an EC50 (agr-GFP reporter, ΔagrD strain) of 0.00418 µM; a Max Activation Observed (agr-GFP reporter, ΔagrD strain) of 74.1%; a Max Inhibition Observed (agr-GFP reporter, wild-type strain) of 20.2%.
In the same order, the values of AIP F5Y (peptide) are 5.62 µM, 44.4% and 6.61%.
Regarding AIP M4dA (peptide), in assay [2], the EC50 (agr-GFP reporter, ΔagrD strain) came out at 0.455 µM; the Max Activation Observed (agr-GFP reporter, ΔagrD strain) worked out at 82%; the Max Inhibition Observed (agr-GFP reporter, wild-type strain) was determined as 9.54%.
In assay [2], AIP A1K/C2dC/M4dM (peptide) yielded an IC50 (agr-GFP reporter, wild-type strain) of 1.77 µM; a Max Activation Observed (agr-GFP reporter, ΔagrD strain) of 8.1%; a Max Inhibition Observed (agr-GFP reporter, wild-type strain) of 88.6%.
In assay [2], “L. monocytogenes AIP, A-(C-F-M-F-V) (peptide)” gave an EC50 (agr-GFP reporter, ΔagrD strain) of 0.0297 µM and a Max Activation Observed (agr-GFP reporter, ΔagrD strain) of 114%. In assay [1], this substance showed an EC50 (agr-GFP reporter, ΔagrD strain) of 0.0296 µM; a Max Activation (agr-GFP reporter, ΔagrD strain) of 114%; a Max Inhibition (agr-GFP reporter, wild-type strain) of 2.66%.
In assay [1], L. grandensis tr AIP (peptide) displayed a Max Activation (agr-GFP reporter, ΔagrD strain) of 10.1% and a Max Inhibition (agr-GFP reporter, wild-type strain) of 0%.
Consider AIP F3H (peptide), for which, in assay [2], the Max Activation Observed (agr-GFP reporter, ΔagrD strain) worked out at 12.4% and the Max Inhibition Observed (agr-GFP reporter, wild-type strain) was 24.9%.
In assay [2], AIP C2dDap (peptide) came in with a Max Activation Observed (agr-GFP reporter, ΔagrD strain) of 14.3% and a Max Inhibition Observed (agr-GFP reporter, wild-type strain) of 19.3%.
In assay [2], AIP F5L (peptide) had an EC50 (agr-GFP reporter, ΔagrD strain) of 2.06 µM; a Max Activation Observed (agr-GFP reporter, ΔagrD strain) of 64.8%; a Max Inhibition Observed (agr-GFP reporter, wild-type strain) of 8.97%.
In assay [2], AIP F3W (peptide) had an EC50 (agr-GFP reporter, ΔagrD strain) of 0.414 µM; an IC50 (agr-GFP reporter, wild-type strain) of 2.18 µM; a Max Activation Observed (agr-GFP reporter, ΔagrD strain) of 60.6%; a Max Inhibition Observed (agr-GFP reporter, wild-type strain) of 27.1%.
In the case of Lm AIP F3S (peptide), in assay [1], the Max Activation (agr-GFP reporter, ΔagrD strain) was 16.1% and the Max Inhibition (agr-GFP reporter, wild-type strain) was determined as 16.3%.
Turning to AIP A1T (peptide), in assay [2], the EC50 (agr-GFP reporter, ΔagrD strain) came to 0.0352 µM; the IC50 (agr-GFP reporter, wild-type strain) was 0.42 µM; the Max Activation Observed (agr-GFP reporter, ΔagrD strain) amounted to 88.1%; the Max Inhibition Observed (agr-GFP reporter, wild-type strain) was 11.7%.
As to L. newyorkensis AIP (peptide), in assay [1], the Max Activation (agr-GFP reporter, ΔagrD strain) came out at 23.6% and the Max Inhibition (agr-GFP reporter, wild-type strain) was 0.96%.
With AIP C2dC/M4dM (peptide), in assay [2], the EC50 (agr-GFP reporter, ΔagrD strain) came to 0.0241 µM; the IC50 (agr-GFP reporter, wild-type strain) came out at 0.242 µM; the Max Activation Observed (agr-GFP reporter, ΔagrD strain) was determined as 35.7%; the Max Inhibition Observed (agr-GFP reporter, wild-type strain) worked out at 64.8%.
In assay [1], AIP V6dV (peptide) yielded an EC50 (agr-GFP reporter, ΔagrD strain) of 0.883 µM and a Max Activation Observed (agr-GFP reporter, ΔagrD strain) of 72.9%.
Consider AIP F5dF (peptide), for which, in assay [1], the EC50 (agr-GFP reporter, ΔagrD strain) was 2.18 µM; the Max Activation Observed (agr-GFP reporter, ΔagrD strain) amounted to 72.3%; the Max Inhibition Observed (agr-GFP reporter, wild-type strain) stood at 2.71%.
In assay [1], AIP F3dF (peptide) registered a Max Activation Observed (agr-GFP reporter, ΔagrD strain) of 6.63% and a Max Inhibition Observed (agr-GFP reporter, wild-type strain) of 14.7%.
As to AIP F5W (peptide), in assay [2], the EC50 (agr-GFP reporter, ΔagrD strain) came to 1.13 µM; the Max Activation Observed (agr-GFP reporter, ΔagrD strain) came to 85.8%; the Max Inhibition Observed (agr-GFP reporter, wild-type strain) came out at 8.43%.
In the case of AIP F5H (peptide), in assay [2], the Max Activation Observed (agr-GFP reporter, ΔagrD strain) came out at 7.13% and the Max Inhibition Observed (agr-GFP reporter, wild-type strain) stood at 2.19%.
For AIP F3A (peptide), in assay [1], the Max Activation Observed (agr-GFP reporter, ΔagrD strain) was found to be 9.72% and the Max Inhibition Observed (agr-GFP reporter, wild-type strain) stood at 3.65%.
Consider AIP F3Y (peptide), for which, in assay [2], the EC50 (agr-GFP reporter, ΔagrD strain) came to 0.518 µM; the IC50 (agr-GFP reporter, wild-type strain) was 3.46 µM; the Max Activation Observed (agr-GFP reporter, ΔagrD strain) stood at 47.4%; the Max Inhibition Observed (agr-GFP reporter, wild-type strain) amounted to 33.4%.
In assay [1], AIP A1dA (peptide) yielded an EC50 (agr-GFP reporter, ΔagrD strain) of 0.0969 µM; a Max Activation Observed (agr-GFP reporter, ΔagrD strain) of 58.8%; a Max Inhibition Observed (agr-GFP reporter, wild-type strain) of 15.2%.
Consider AIP M4A (peptide), for which, in assay [1], the EC50 (agr-GFP reporter, ΔagrD strain) was determined as 1.98 µM; the Max Activation Observed (agr-GFP reporter, ΔagrD strain) is 53.5%; the Max Inhibition Observed (agr-GFP reporter, wild-type strain) was 7.85%.
In the case of AIP M4dM (peptide), in assay [1], the EC50 (agr-GFP reporter, ΔagrD strain) stood at 0.0102 µM; the Max Activation Observed (agr-GFP reporter, ΔagrD strain) was found to be 111%; the Max Inhibition Observed (agr-GFP reporter, wild-type strain) was 3.99%.
For the substance AIP A1V (peptide), in assay [2], the EC50 (agr-GFP reporter, ΔagrD strain) came out at 0.00767 µM; the Max Activation Observed (agr-GFP reporter, ΔagrD strain) is 109%; the Max Inhibition Observed (agr-GFP reporter, wild-type strain) was found to be 1.63%.
Regarding L. grayi AIP (peptide), in assay [1], the Max Activation (agr-GFP reporter, ΔagrD strain) is 10.7% and the Max Inhibition (agr-GFP reporter, wild-type strain) is 0.42%.
Substance AIP F5A (peptide) returned a Max Activation Observed (agr-GFP reporter, ΔagrD strain) in assay [1] of 6.37%.
In assay [1], AIP C2dC (peptide) returned an EC50 (agr-GFP reporter, ΔagrD strain) of 0.106 µM; an IC50 (agr-GFP reporter, wild-type strain) of 3.97 µM; a Max Activation Observed (agr-GFP reporter, ΔagrD strain) of 41%; a Max Inhibition Observed (agr-GFP reporter, wild-type strain) of 48.4%.
In the case of AIP V6A (peptide), in assay [1], the EC50 (agr-GFP reporter, ΔagrD strain) came out at 0.241 µM; the Max Activation (agr-GFP reporter, ΔagrD strain) was 69%; the Max Activation Observed (agr-GFP reporter, ΔagrD strain) was 69%; the Max Inhibition (agr-GFP reporter, wild-type strain) amounted to 15%. For the same substance, the Max Inhibition Observed (agr-GFP reporter, wild-type strain) in assay [1] stood at 15%.
For AIP F3L (peptide), in assay [2], the EC50 (agr-GFP reporter, ΔagrD strain) turned out to be 0.693 µM; the IC50 (agr-GFP reporter, wild-type strain) came out at 3.6 µM; the Max Activation Observed (agr-GFP reporter, ΔagrD strain) stood at 37.6%; the Max Inhibition Observed (agr-GFP reporter, wild-type strain) came out at 33.4%.
Consider AIP A1P (peptide), for which, in assay [2], the EC50 (agr-GFP reporter, ΔagrD strain) amounted to 0.029 µM; the IC50 (agr-GFP reporter, wild-type strain) is 0.611 µM; the Max Activation Observed (agr-GFP reporter, ΔagrD strain) came to 76.8%; the Max Inhibition Observed (agr-GFP reporter, wild-type strain) was 23.7%.
In assay [2], AIP C2Dap (peptide) returned an EC50 (agr-GFP reporter, ΔagrD strain) of 0.342 µM; a Max Activation Observed (agr-GFP reporter, ΔagrD strain) of 92.9%; a Max Inhibition Observed (agr-GFP reporter, wild-type strain) of 5.32%.
In assay [1], L. kieliensis AIP (peptide) had a Max Activation (agr-GFP reporter, ΔagrD strain) of 10.4% and a Max Inhibition (agr-GFP reporter, wild-type strain) of 0%.
